Measurements as given in patent US9217139B2, “Extracellularly secreted nuclease” (JAPAN AGENCY FOR MARINE-EARTH SCIENCE AND TECHNOLOGY, priority 2010, dated 2015).

B1: NucL: nucleolytic enzyme of about 66.5 kDa secreted by Streptomyces sp. MBE174; SEQ ID NO. 4 (protein)
chain: MASQSVTRLAALTVAATCSAASVVVLGPPAHADSVRIHDIQGTTRISPYAGRQVADVPGVVTGVRDHGSSRGFWFQDPRPDDDPATSEGVFVFTGSAPGVEAGDAVTVSGTVSEFVPGGTASGNQSLTEITRPTVTVVSRGNPVPDPVVVSARSVPHAYAPAGDAAANGSVNALPLRPDRYALDYYESLEGMNVQVADARVVGATDPYTELWVTVKPGENASPRGGTVYGSRDAQNTGRLQIQTLGVPAGFPAADVGDTLAGATTGPLDYNQFGGYTLVARSLGTLTAGGLARETTREQHRDELSVATYNVENLDPSDGTFAAHAEAIVRNLRSPDIVSLEEIQDDNGATDDGTVTAGVTVGKLIDAVVAAGGPRYDWRSVDPVDKADGGQPGGNIRQVFLFDPRRVSFADRPGGDAVTATGVVKVRGKAALTHSPGRVDPANPAWLNSRKPLAGEFSFRGRTVFVIANHFASKGGDQGLTSQYQPPARSSETQRHLQATAVNTFVKQILAVQKNADVIALGDINDFEFSGTTERLEAGGALWSAVRSLPPGERYSYVYQGNSQVLDQILVSPSIRRGHLSYDSVHINAEFHDQISDHDPQVLRYRP
modifications: Streptmyces sp. MBE174
B2: NucS: low-molecular-weight nucleolytic enzyme, about 17 to 21 kDa, secreted by Streptomyces sp. MBE174; SEQ ID NO. 3 (protein)
chain: MPKLYARRRFAVLAALTGLIASAGLFHGPAASAALPTPVSAATARGYLASLKVAPENRTGYKRDLFPHWITQSGTCNTRETVLKRDGTNVVTDAACAATSGSWYSPFDGATWTAASDVDIDHLVPLAEAWDSGASAWTTAQRQAFANDLTRPQLLAVTDTVNQSKGDKDPAEWMPPRAAYHCTYVRAWVQVKYYYGLSVDTAEKTALTNRLAGC
modifications: Streptmyces sp. MBE174

Assays:
Assay type in all cases: biochemical
[1] = tested on: linear double-stranded DNA (pUC18 plasmid cut by BamHI, SacI, SmaI); test: degradation pattern of linear double-stranded DNA; details: for degradation of linear double-stranded DNA regardless of the structure of DNA strand ends: 5'-protruding, 3'-protruding and flush ends; for efficiency of degradation of linear double-stranded DNA compared with circular DNA: comparison of FIGS. 12, 16, 17
Excerpt: With the use of the standard specific activity measurement method, as well as of a substrate obtained by making circular DNA (pUC18 plasmid) linear by using restriction nucleases BamHI (which generates a 5′-protruding end), SacI (which generates a 3′-protruding end), and SmaI (which generates a flush end), a degradation reaction took place with the use of NucS and NucL (referring to FIGS. 16 and 17).
Given the above results, it is presumed that NucL has a reaction style called an endo-exo type.

[2] = thermal stability test (residual activity); details: heat treatment 30 minutes, 20 mM Tris/HCl pH 8.5, 1 mM MgCl2, 1 mM CaCl2; ice bath = 100 percent
Procedure: After heat treatment was conducted for 30 minutes at each temperature in 20 mM of Tris/HCl at pH 8.5 that contained 1 mM of MgCl2 and 1 mM of CaCl2, the residual activity was measured (referring to FIG. 6). An activity of an enzyme stored in an ice bath was regarded as 100 percent.

[3] = tested on: circular DNA (pUC18 plasmid); test: reaction styles in initial stage of degradation of circular DNA
Procedure: According to the standard specific activity measurement method, reaction styles in an initial stage of degradation reaction for circular DNA (pUC18 plasmid) of NucS and NucL were analyzed (referring to FIGS. 14 and 15). […] The degradation of circular plasmid DNA executed by the single strand-specific nucleolytic enzyme is considered to proceed as the molecular weight degreases due to accumulation of endo-type cleavage of single strands.

Salmon sperm DNA = test: standard specific activity measurement method (increase of absorbancy at 260 nm); details: 37 degrees Celsius; for specific activity: purified enzyme, 30 minutes, 20 mM Tris/HCl pH 8.5, 1 mM MgCl2, 1 mM CaCl2
Procedure: The specific activity of NucS was measured at 37 degrees Celsius in 20 mM of Tris/HCl at pH 8.5 that contains 1 mM of MgCl2 and 1 mM of CaCl2 (a measurement method under the condition described here is also referred to as a standard specific activity measurement method, hereinafter); the specific activity was 3.6×10^6 U/mg-protein, which was a very high level of specific activity. In this case, 1 U represents an amount of enzymes necessary to increase the absorbancy of 260 nm by one for 30 minutes when the enzymes works on the following as substrate: Salmon sperm DNA 1 mg/mL (manufactured by Invitrogen; Cat no. 15632-011). As a reference, as for NucS, when the specific activity of Benzonase (Registered Trademark), which was a commercially available nucleolytic enzyme that had the highest specific activity among those listed in a brochure, was measured under the conditions described in the brochure (37 degrees Celsius) with the use of the same substrate; the specific activity was 9.4×10^5 U/mg-protein. As a result, it became clear that the specific activity of NucS is about 3.8 times higher than that of Benzonase.
The specific activity of NucL was 5.6×10^4 U/mg-protein at 37 degrees Celsius in 20 mM of Tris/HCl at pH 8.5 that contains 1 mM of MgCl2 and 1 mM of CaCl2. The isoelectric point was measured by using Novex (Registered Trademark) IEF pH-3-10 gel (manufactured by Invitrogen); and then pl was 7.0. Then, it was determined that a N-terminal amino acid sequence of the purified enzyme was DSVRIHDIQGTTR. The sequence matched 12 out of 13 amino acids of putative protein (putative secreted hydrolase) coded on a genome of Streptomyces scabiei 87.22, and of putative protein (large secreted protein) coded on a genome of S. avermitilis MA-4680.

[4] = tested on: Deoxyribonucleic acid sodium salt from salmon testes; test: effects of monovalent salt on enzyme activity; details: 10 mM Tris/HCl pH 8.5, 1 mM MgCl2, 25 degrees Celsius
Procedure: Effects of monovalent salt on NucS and NucL were examined. At each concentration level of NaCl, the nucleic-acid degradation activity was measured at 25 degrees Celsius for 15 minutes by using, as substrate, Deoxyribonucleic acid sodium salt from salmon testes 0.4 mg/mL (manufactured by Sigma-Aldrich; Cat no. D1626-1G) in 10 mM of Tris/HCl at pH 8.5 that contained 1 mM of MgCl2 and 0 to 1,000 mM of NaCl. […] Substantially similar results were obtained even in the case of using KCl (referring to FIG. 8).

Row | Molecule | reaction style presumed from linear DNA degradation [1] | degradation of linear double-stranded DNA regardless of the structure of DNA strand ends [1] | efficiency of degradation of linear double-stranded DNA compared with circular DNA [1] | temperature until which the enzyme remained stable [2] [degrees Celsius] | reaction style in initial stage of degradation of circular DNA [3] | specific activity (Salmon sperm DNA) | NaCl concentration up to which the enzyme remained active [4] | specific activity of NucS relative to Benzonase (Salmon sperm DNA; same substrate) | activity in dependence on NaCl concentration ([4]; 0 to 1,000 mM NaCl)
1 | B1 | endo-exo type | can degrade | more efficiently | ≤ 35 | reaction pattern similar to a single strand-specific, endo-type nucleolytic enzyme | 5.6×10^4 U/mg-protein | up to 1,000 mM |  | 
2 | B2 |  | can degrade | at the same level of efficiency | ≤ 45 | degradation activity of an endo-type style | 3.6×10^6 U/mg-protein |  | about 3.8 times | high when the concentration of NaCl was low
